Legend:
Test in all cases: purified protein
Conditions in all cases: 25 °C, 50 mM Hepes/NaOH pH 7.5, 0.5% v/v reduced Triton X-100
[1] = substrate: NCc1ccccc1
[2] = substrate: NCCC(=O)c1ccccc1N; type: biochemical, Homo sapiens
[3] = substrate: NCCc1ccc(O)cc1; type: biochemical, Homo sapiens
[4] = substrate: NCCc1ccccc1; type: biochemical, Homo sapiens
[5] = substrate: NCCc1c[nH]c2ccc(O)cc12

B1: Human MAOB (Homo sapiens) (protein)
chain: SNKCDVVVVGGGISGMAAAKLLHDSGLNVVVLEARDRVGGRTYTLRNQKVKYVDLGGSYVGPTQNRILRLAKELGLETYKVNEVERLIHHVKGKSYPFRGPFPPVWNPITYLDHNNFWRTMDDMGREIPSDAPWKAPLAEEWDNMTMKELLDKLCWTESAKQLATLFVNLCVTAETHEVSALWFLWYVKQCGGTTRIISTTNGGQERKFVGGSGQVSERIMDLLGDRVKLERPVIYIDQTRENVLVETLNHEMYEAKYVISAIPPTLGMKIHFNPPLPMMRNQMITRVPLGSVIKCIVYYKEPFWRKKDYCGTMIIDGEEAPVAYTLDDTKPEGNYAAIMGFILAHKARKLARLTKEERLKKLCELYAKVLGSLEALEPVHYEEKNWCEEQYSGGCYTTYFPPGILTQYGRVLRQPVDRIYFAGTETATHWSGYMEGAVEAGERAAREILHAMGKIPEDEIWQSEPESVDVPAQPITTTFLERHLPSVPGLLRLIGLTTIFSATALGFLAHKRGLLVRV
notes: recombinant, overexpressed and purified by published protocols
- Km [1]: 350 ± 100 µM
- kcat [1]: 0.738 ± 0.0833 s⁻¹
- kcat/Km [1]: 2100 M⁻¹ s⁻¹
- Km [2]: 52 ± 7 µM
- kcat [2]: 0.485 ± 0.0167 s⁻¹
- kcat/Km [2]: 9300 M⁻¹ s⁻¹
- Km [3]: 400 ± 110 µM
- kcat [3]: 0.742 ± 0.0833 s⁻¹
- kcat/Km [3]: 1850 M⁻¹ s⁻¹
- Km [4]: 11 ± 1 µM
- kcat [4]: 0.758 ± 0.0167 s⁻¹
- kcat/Km [4]: 68900 M⁻¹ s⁻¹

B2: Human MAOA (Homo sapiens) (protein)
chain: MENQEKASIAGHMFDVVVIGGGISGLSAAKLLTEYGVSVLVLEARDRVGGRTYTIRNEHVDYVDVGGAYVGPTQNRILRLSKELGIETYKVNVSERLVQYVKGKTYPFRGAFPPVWNPIAYLDYNNLWRTIDNMGKEIPTDAPWEAQHADKWDKMTMKELIDKICWTKTARRFAYLFVNINVTSEPHEVSALWFLWYVKQCGGTTRIFSVTNGGQERKFVGGSGQVSERIMDLLGDQVKLNHPVTHVDQSSDNIIIETLNHEHYECKYVINAIPPTLTAKIHFRPELPAERNQLIQRLPMGAVIKCMMYYKEAFWKKKDYCGCMIIEDEDAPISITLDDTKPDGSLPAIMGFILARKADRLAKLHKEIRKKKICELYAKVLGSQEALHPVHYEEKNWCEEQYSGGCYTAYFPPGIMTQYGRVIRQPVGRIFFAGTETATKWSGYMEGAVEAGERAAREVLNGLGKVTEKDIWVQEPESKDVPAVEITHTFWERNLPSVSGLLKIIGFSTSVTALGFVLYKYKLLPRS
notes: as for B1
- Km [5]: 1800 ± 100 µM
- kcat [5]: 3.777 ± 0.075 s⁻¹
- kcat/Km [5]: 2100 M⁻¹ s⁻¹
- Km [2]: 200 ± 20 µM
- kcat [2]: 1.39 ± 0.0383 s⁻¹
- kcat/Km [2]: 6920 M⁻¹ s⁻¹
- Km [3]: 100 ± 20 µM
- kcat [3]: 1.53 ± 0.07 s⁻¹
- kcat/Km [3]: 15300 M⁻¹ s⁻¹
- Km [4]: 400 ± 100 µM
- kcat [4]: 0.803 ± 0.055 s⁻¹
- kcat/Km [4]: 2010 M⁻¹ s⁻¹

Source: publication PMC11833248, “Evolutionary and Functional Analysis of Monoamine Oxidase F: A Novel Member of the Monoamine Oxidase Gene Family” (Genome Biology and Evolution, 2025)
